Drawing on patent US20150376238A1 (University of Washington, published 2015), this text covers Kd for 4 molecules.

B1: Variant H3 24-8 (V27M, K49E) (designed binder)
chain: GTGMVAISMDTDKISNSFEDCKYFLIMVVSAGWTNTIFNDESGKKEIVEMNVDAIICKNISEENYKKFSKKIEIYHAEGDDVDKNISLFIEGELSKISNPLE
B2: Variant H3 24-3b (V28M) (designed binder)
chain: GTGMVAISMDTDKISNSFEDCKYFLIVMVSAGWTNTIFNDESGKKEIVKMNVDAIICKNISEENYKKFSKKIEIYHAEGDDVDKNISLFIEGELSKISNPLE
B3: Variant H3 24-3a (I2T, V29E) (designed binder)
chain: GTGMVAISMDTDKISNSFEDCKYFLIVVESAGWTNTIFNDESGKKEIVKMNVDAIICKNISEENYKKFSKKIEIYHAEGDDVDKNISLFIEGELSKISNP
B4: Variant H3 24-2 (V27M, F38S, K49E) (designed binder)
chain: GIGMVAISMDTDKISNSFEDCKYFLIMVVSAGWTNTISNDESGKKEIVEMNVDAIICKNISEENYKKFSKKIEIYHAEGDDVDKNISLFIEGELSKISNP

The test has as its target H3 subtype hemagglutinin (strain not stated).
Turning to B1, the dissociation constant (Kd) came out at 14.8 nM.
As to B2, the Kd stood at 12.7 nM.
B3: the dissociation constant (Kd) was determined as 7.92 nM. This Kd is about 1.6-fold lower than that of the molecule before.
B4 had a dissociation constant Kd of 8.97 nM. This Kd and that of the molecule before are within 1.5-fold of each other.

In general, Kd refers to the constant that tells how readily two partners part at equilibrium. Higher therefore signals a looser complex.
